Source: patent publication US20210032299A1 (Eli Lilly, published 2021)
Starred links: 1 amine or outer side, 2 acyl side, 3 side chain; linkers in the order of their positions; H or OH if unused. Non-standard residues stand in square brackets, D forms with d. Groups on a side chain read outwards from the residue. No end group written: not given here. *: point of attachment. C20 diacid = O=C(O)CCCCCCCCCCCCCCCCCCC(=O)*; C18 diacid = O=C(O)CCCCCCCCCCCCCCCCC(=O)*; γGlu = O=C(O)[C@H](CCC(=O)[*:2])N[*:1]; αMeY = C[C@](N)(Cc1ccc(O)cc1)C(=O)O; 4Pal = N[C@@H](Cc1ccncc1)C(=O)O; αMeL = CC(C)C[C@](C)(N)C(=O)O; AEEA = NCCOCCOCC(=O)O; Aib = CC(C)(N)C(=O)O

B1: Example 93 (peptide)
peptide: Y[dA]EGTFISDYSILLDKIAQ[Aib]DFVNWK([AEEA-AEEA-γGlu-C18 diacid])LAQGPSSGAPPPS-NH2
modifications: N-terminus assumed
SMILES: CC[C@H](C)[C@H](NC(=O)[C@H](CCCCN)NC(=O)[C@H](CC(=O)O)NC(=O)[C@H](CC(C)C)NC(=O)[C@H](CC(C)C)NC(=O)[C@@H](NC(=O)[C@H](CO)NC(=O)[C@H](Cc1ccc(O)cc1)NC(=O)[C@H](CC(=O)O)NC(=O)[C@H](CO)NC(=O)[C@@H](NC(=O)[C@H](Cc1ccccc1)NC(=O)[C@@H](NC(=O)CNC(=O)[C@H](CCC(=O)O)NC(=O)[C@@H](C)NC(=O)[C@@H](N)Cc1ccc(O)cc1)[C@@H](C)O)[C@@H](C)CC)[C@@H](C)CC)C(=O)N[C@@H](C)C(=O)N[C@@H](CCC(N)=O)C(=O)NC(C)(C)C(=O)N[C@@H](CC(=O)O)C(=O)N[C@@H](Cc1ccccc1)C(=O)N[C@H](C(=O)N[C@@H](CC(N)=O)C(=O)N[C@@H](Cc1c[nH]c2ccccc12)C(=O)N[C@@H](CCCCNC(=O)COCCOCCNC(=O)COCCOCCNC(=O)CC[C@H](NC(=O)CCCCCCCCCCCCCCCCC(=O)O)C(=O)O)C(=O)N[C@@H](CC(C)C)C(=O)N[C@@H](C)C(=O)N[C@@H](CCC(N)=O)C(=O)NCC(=O)N1CCC[C@H]1C(=O)N[C@@H](CO)C(=O)N[C@@H](CO)C(=O)NCC(=O)N[C@@H](C)C(=O)N1CCC[C@H]1C(=O)N1CCC[C@H]1C(=O)N1CCC[C@H]1C(=O)N[C@@H](CO)C(N)=O)C(C)C
B2: Example 88 (peptide)
peptide: YXEGTXISDYSIXLDKKHQXDFVEXLLEAGPSSGAPPPS
modifications: Aib2; Iva6; αMeL13; K17((2-[2-(2-Amino-ethoxy)-ethoxy]-acetyl)2-(γ-Glu)-CO-(CH2)18-CO2H); Aib20; 4-Pal25; C-terminal amide
B3: Example 92 (peptide)
peptide: Y[Aib]EGTFISDYSI[αMeL]LDKIHQ[Aib]DFVEYK([AEEA-AEEA-γGlu-C20 diacid])LEQGPSSGAPPPS-NH2
modifications: N-terminus assumed
SMILES: CC[C@H](C)[C@H](NC(=O)[C@H](CCCCN)NC(=O)[C@H](CC(=O)O)NC(=O)[C@H](CC(C)C)NC(=O)[C@](C)(CC(C)C)NC(=O)[C@@H](NC(=O)[C@H](CO)NC(=O)[C@H](Cc1ccc(O)cc1)NC(=O)[C@H](CC(=O)O)NC(=O)[C@H](CO)NC(=O)[C@@H](NC(=O)[C@H](Cc1ccccc1)NC(=O)[C@@H](NC(=O)CNC(=O)[C@H](CCC(=O)O)NC(=O)C(C)(C)NC(=O)[C@@H](N)Cc1ccc(O)cc1)[C@@H](C)O)[C@@H](C)CC)[C@@H](C)CC)C(=O)N[C@@H](Cc1c[nH]cn1)C(=O)N[C@@H](CCC(N)=O)C(=O)NC(C)(C)C(=O)N[C@@H](CC(=O)O)C(=O)N[C@@H](Cc1ccccc1)C(=O)N[C@H](C(=O)N[C@@H](CCC(=O)O)C(=O)N[C@@H](Cc1ccc(O)cc1)C(=O)N[C@@H](CCCCNC(=O)COCCOCCNC(=O)COCCOCCNC(=O)CC[C@H](NC(=O)CCCCCCCCCCCCCCCCCCC(=O)O)C(=O)O)C(=O)N[C@@H](CC(C)C)C(=O)N[C@@H](CCC(=O)O)C(=O)N[C@@H](CCC(N)=O)C(=O)NCC(=O)N1CCC[C@H]1C(=O)N[C@@H](CO)C(=O)N[C@@H](CO)C(=O)NCC(=O)N[C@@H](C)C(=O)N1CCC[C@H]1C(=O)N1CCC[C@H]1C(=O)N1CCC[C@H]1C(=O)N[C@@H](CO)C(N)=O)C(C)C
B4: Example 89 (peptide)
peptide: Y[Aib]EGTLISDYSI[αMeL]LDKK([AEEA-AEEA-γGlu-C20 diacid])HQ[Aib]DFVE[4Pal]LLEAGPSSGAPPPS-NH2
modifications: N-terminus assumed
SMILES: CC[C@H](C)[C@H](NC(=O)[C@H](CC(C)C)NC(=O)[C@@H](NC(=O)CNC(=O)[C@H](CCC(=O)O)NC(=O)C(C)(C)NC(=O)[C@@H](N)Cc1ccc(O)cc1)[C@@H](C)O)C(=O)N[C@@H](CO)C(=O)N[C@@H](CC(=O)O)C(=O)N[C@@H](Cc1ccc(O)cc1)C(=O)N[C@@H](CO)C(=O)N[C@H](C(=O)N[C@@](C)(CC(C)C)C(=O)N[C@@H](CC(C)C)C(=O)N[C@@H](CC(=O)O)C(=O)N[C@@H](CCCCN)C(=O)N[C@@H](CCCCNC(=O)COCCOCCNC(=O)COCCOCCNC(=O)CC[C@H](NC(=O)CCCCCCCCCCCCCCCCCCC(=O)O)C(=O)O)C(=O)N[C@@H](Cc1c[nH]cn1)C(=O)N[C@@H](CCC(N)=O)C(=O)NC(C)(C)C(=O)N[C@@H](CC(=O)O)C(=O)N[C@@H](Cc1ccccc1)C(=O)N[C@H](C(=O)N[C@@H](CCC(=O)O)C(=O)N[C@@H](Cc1ccncc1)C(=O)N[C@@H](CC(C)C)C(=O)N[C@@H](CC(C)C)C(=O)N[C@@H](CCC(=O)O)C(=O)N[C@@H](C)C(=O)NCC(=O)N1CCC[C@H]1C(=O)N[C@@H](CO)C(=O)N[C@@H](CO)C(=O)NCC(=O)N[C@@H](C)C(=O)N1CCC[C@H]1C(=O)N1CCC[C@H]1C(=O)N1CCC[C@H]1C(=O)N[C@@H](CO)C(N)=O)C(C)C)[C@@H](C)CC
B5: Example 91 (peptide)
peptide: Y[Aib]EGTFISDYSI[αMeL]LDKK([AEEA-AEEA-γGlu-C20 diacid])HQ[Aib]DFVE[αMeY]LLEGGPSSGAPPPS-NH2
modifications: N-terminus assumed
SMILES: CC[C@H](C)[C@H](NC(=O)[C@H](Cc1ccccc1)NC(=O)[C@@H](NC(=O)CNC(=O)[C@H](CCC(=O)O)NC(=O)C(C)(C)NC(=O)[C@@H](N)Cc1ccc(O)cc1)[C@@H](C)O)C(=O)N[C@@H](CO)C(=O)N[C@@H](CC(=O)O)C(=O)N[C@@H](Cc1ccc(O)cc1)C(=O)N[C@@H](CO)C(=O)N[C@H](C(=O)N[C@@](C)(CC(C)C)C(=O)N[C@@H](CC(C)C)C(=O)N[C@@H](CC(=O)O)C(=O)N[C@@H](CCCCN)C(=O)N[C@@H](CCCCNC(=O)COCCOCCNC(=O)COCCOCCNC(=O)CC[C@H](NC(=O)CCCCCCCCCCCCCCCCCCC(=O)O)C(=O)O)C(=O)N[C@@H](Cc1c[nH]cn1)C(=O)N[C@@H](CCC(N)=O)C(=O)NC(C)(C)C(=O)N[C@@H](CC(=O)O)C(=O)N[C@@H](Cc1ccccc1)C(=O)N[C@H](C(=O)N[C@@H](CCC(=O)O)C(=O)N[C@@](C)(Cc1ccc(O)cc1)C(=O)N[C@@H](CC(C)C)C(=O)N[C@@H](CC(C)C)C(=O)N[C@@H](CCC(=O)O)C(=O)NCC(=O)NCC(=O)N1CCC[C@H]1C(=O)N[C@@H](CO)C(=O)N[C@@H](CO)C(=O)NCC(=O)N[C@@H](C)C(=O)N1CCC[C@H]1C(=O)N1CCC[C@H]1C(=O)N1CCC[C@H]1C(=O)N[C@@H](CO)C(N)=O)C(C)C)[C@@H](C)CC
B6: Example 90 (peptide)
peptide: Y[Aib]EGTFISDYSI[αMeL]LDKK([AEEA-AEEA-γGlu-C20 diacid])HQ[Aib]DFVE[αMeY]LLEAGPSSGAPPPS-NH2
modifications: N-terminus assumed
SMILES: CC[C@H](C)[C@H](NC(=O)[C@H](Cc1ccccc1)NC(=O)[C@@H](NC(=O)CNC(=O)[C@H](CCC(=O)O)NC(=O)C(C)(C)NC(=O)[C@@H](N)Cc1ccc(O)cc1)[C@@H](C)O)C(=O)N[C@@H](CO)C(=O)N[C@@H](CC(=O)O)C(=O)N[C@@H](Cc1ccc(O)cc1)C(=O)N[C@@H](CO)C(=O)N[C@H](C(=O)N[C@@](C)(CC(C)C)C(=O)N[C@@H](CC(C)C)C(=O)N[C@@H](CC(=O)O)C(=O)N[C@@H](CCCCN)C(=O)N[C@@H](CCCCNC(=O)COCCOCCNC(=O)COCCOCCNC(=O)CC[C@H](NC(=O)CCCCCCCCCCCCCCCCCCC(=O)O)C(=O)O)C(=O)N[C@@H](Cc1c[nH]cn1)C(=O)N[C@@H](CCC(N)=O)C(=O)NC(C)(C)C(=O)N[C@@H](CC(=O)O)C(=O)N[C@@H](Cc1ccccc1)C(=O)N[C@H](C(=O)N[C@@H](CCC(=O)O)C(=O)N[C@@](C)(Cc1ccc(O)cc1)C(=O)N[C@@H](CC(C)C)C(=O)N[C@@H](CC(C)C)C(=O)N[C@@H](CCC(=O)O)C(=O)N[C@@H](C)C(=O)NCC(=O)N1CCC[C@H]1C(=O)N[C@@H](CO)C(=O)N[C@@H](CO)C(=O)NCC(=O)N[C@@H](C)C(=O)N1CCC[C@H]1C(=O)N1CCC[C@H]1C(=O)N1CCC[C@H]1C(=O)N[C@@H](CO)C(N)=O)C(C)C)[C@@H](C)CC

What was measured:
Experiment in all cases: cell-based or functional assay
human glucagon receptor = human glucagon receptor (human, UniProt P47871 26-477)
[1] = molecular target: T1, human glucose-dependent insulinotropic peptide receptor (human, UniProt P48546 22-466)
T1 sequence (looked up): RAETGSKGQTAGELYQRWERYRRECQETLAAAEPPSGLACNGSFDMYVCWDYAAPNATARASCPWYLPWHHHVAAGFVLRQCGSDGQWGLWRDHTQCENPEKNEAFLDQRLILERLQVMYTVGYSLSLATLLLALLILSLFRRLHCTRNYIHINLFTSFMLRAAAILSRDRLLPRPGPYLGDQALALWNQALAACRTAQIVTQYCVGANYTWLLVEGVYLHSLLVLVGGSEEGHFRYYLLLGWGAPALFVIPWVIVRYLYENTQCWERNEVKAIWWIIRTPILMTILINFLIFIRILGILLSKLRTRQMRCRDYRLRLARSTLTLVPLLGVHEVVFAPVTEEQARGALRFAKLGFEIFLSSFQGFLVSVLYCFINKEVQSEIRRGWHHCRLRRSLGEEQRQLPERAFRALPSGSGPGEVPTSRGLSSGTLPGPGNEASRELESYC

human GLP-1 receptor = human GLP-1 receptor (human, UniProt P43220 24-463)

human glucagon receptor, sequence (P47871 26-477): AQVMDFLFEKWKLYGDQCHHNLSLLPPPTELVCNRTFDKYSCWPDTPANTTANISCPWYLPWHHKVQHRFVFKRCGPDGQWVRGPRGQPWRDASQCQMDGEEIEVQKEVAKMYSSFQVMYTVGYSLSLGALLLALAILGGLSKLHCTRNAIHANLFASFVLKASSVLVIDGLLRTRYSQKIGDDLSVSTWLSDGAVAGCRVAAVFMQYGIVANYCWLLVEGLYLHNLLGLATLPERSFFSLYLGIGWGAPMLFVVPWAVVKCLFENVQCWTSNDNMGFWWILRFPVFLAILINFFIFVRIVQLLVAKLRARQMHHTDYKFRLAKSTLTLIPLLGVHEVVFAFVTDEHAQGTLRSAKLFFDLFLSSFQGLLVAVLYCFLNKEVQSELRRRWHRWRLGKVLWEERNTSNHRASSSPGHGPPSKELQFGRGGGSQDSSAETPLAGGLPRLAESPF

Row | Binder | hGcgR cAMP Rel EC50 (human glucagon receptor) | hGIPR cAMP Rel EC50 [1] | hGLP1R cAMP Rel EC50 (human GLP-1 receptor)
1 | B1 | > 5000 nM | 0.00482 nM | 884 nM
2 | B2 | 1670 nM | 0.0031 nM | > 5000 nM
3 | B3 | > 5000 nM | 0.0191 nM | > 5000 nM
4 | B4 | > 5000 nM | 0.00687 nM | > 5000 nM
5 | B5 | 289 nM | 0.0321 nM | 530 nM
6 | B6 | > 5000 nM | 0.0272 nM | > 5000 nM
